What was measured:
[1] = target: T1, rabbit serum albumin (rabbit, UniProt P49065); assay: FP, PBS pH 7.4
T1 chain: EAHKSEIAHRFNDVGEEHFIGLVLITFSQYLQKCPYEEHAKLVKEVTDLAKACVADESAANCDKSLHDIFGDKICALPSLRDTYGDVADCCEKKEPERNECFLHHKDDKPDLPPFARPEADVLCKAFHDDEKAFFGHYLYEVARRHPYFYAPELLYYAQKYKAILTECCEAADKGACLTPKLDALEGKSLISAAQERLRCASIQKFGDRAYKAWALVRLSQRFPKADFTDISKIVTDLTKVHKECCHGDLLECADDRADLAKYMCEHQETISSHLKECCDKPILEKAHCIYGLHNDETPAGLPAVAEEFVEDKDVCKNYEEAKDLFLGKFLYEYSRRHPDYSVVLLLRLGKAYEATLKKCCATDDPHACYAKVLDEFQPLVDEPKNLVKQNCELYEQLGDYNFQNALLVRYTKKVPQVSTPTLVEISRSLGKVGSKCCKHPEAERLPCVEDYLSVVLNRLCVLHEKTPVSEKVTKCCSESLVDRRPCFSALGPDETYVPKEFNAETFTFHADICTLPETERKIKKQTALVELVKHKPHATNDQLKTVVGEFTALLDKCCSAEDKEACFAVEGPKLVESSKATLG

[2] = target: T2, rhesus serum albumin (rhesus macaque, UniProt Q28522); assay: FP, PBS pH 7.4
T2 chain: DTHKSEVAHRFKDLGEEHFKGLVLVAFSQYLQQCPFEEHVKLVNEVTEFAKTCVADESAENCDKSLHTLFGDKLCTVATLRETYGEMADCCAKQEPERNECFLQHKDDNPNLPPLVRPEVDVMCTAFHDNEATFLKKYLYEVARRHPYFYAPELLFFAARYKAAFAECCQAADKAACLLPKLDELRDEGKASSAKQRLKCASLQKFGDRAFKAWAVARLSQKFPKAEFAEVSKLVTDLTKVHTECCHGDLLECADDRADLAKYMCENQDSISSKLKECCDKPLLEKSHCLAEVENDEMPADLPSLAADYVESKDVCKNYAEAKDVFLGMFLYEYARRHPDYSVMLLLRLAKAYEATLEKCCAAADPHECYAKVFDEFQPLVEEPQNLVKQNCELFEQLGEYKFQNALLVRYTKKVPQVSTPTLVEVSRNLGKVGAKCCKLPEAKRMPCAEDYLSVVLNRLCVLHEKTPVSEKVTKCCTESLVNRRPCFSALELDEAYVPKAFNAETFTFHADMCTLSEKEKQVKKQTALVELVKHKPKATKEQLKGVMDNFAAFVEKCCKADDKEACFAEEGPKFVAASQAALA

[3] = target: T3, human serum albumin (HSA) (human, UniProt P02768); assay: FP, PBS pH 7.4
[4] = target: mouse serum albumin (mouse, UniProt P07724); assay: FP, pH 6.2, no NaCl
[5] = target: T3, human serum albumin (HSA); assay: FP, pH 6.2, no NaCl
[6] = target: T3, human serum albumin (HSA); assay: FP, pH 7.4, 0.14 M NaCl, 0.1% caprylate

Sequence of mouse serum albumin (P07724 25-608): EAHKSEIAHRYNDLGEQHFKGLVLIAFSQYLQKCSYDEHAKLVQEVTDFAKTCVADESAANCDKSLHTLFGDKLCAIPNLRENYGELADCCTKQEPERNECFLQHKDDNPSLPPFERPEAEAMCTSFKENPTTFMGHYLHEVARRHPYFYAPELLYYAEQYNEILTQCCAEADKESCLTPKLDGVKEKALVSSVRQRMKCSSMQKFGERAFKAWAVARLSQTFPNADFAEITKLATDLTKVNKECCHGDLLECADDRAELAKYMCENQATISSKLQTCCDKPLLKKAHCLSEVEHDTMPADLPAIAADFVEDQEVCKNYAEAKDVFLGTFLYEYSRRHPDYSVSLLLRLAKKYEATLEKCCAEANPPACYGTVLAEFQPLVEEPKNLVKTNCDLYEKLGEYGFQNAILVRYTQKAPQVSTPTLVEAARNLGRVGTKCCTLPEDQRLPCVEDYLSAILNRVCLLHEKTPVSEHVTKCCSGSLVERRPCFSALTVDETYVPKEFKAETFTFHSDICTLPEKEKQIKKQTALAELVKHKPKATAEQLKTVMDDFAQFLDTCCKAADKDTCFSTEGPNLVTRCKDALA

Kd [1]: > 200 µM | Kd [2]: 82 µM | Kd [3]: 84 µM | Kd [4]: > 200 µM | Kd [5]: 0.9 µM | Kd [6]: 75 µM
B1: DX-321 (peptide)
chain: AEGTGDRNMCKFSWIRSPAFCARADPEXK
modifications: disulfide cyclic, N-acetyl, C-amide, X = 6-aminohexanoic acid, fluorescein on Lys
